Assay results: patent publication US20200140552A1 (Sanofi, published 2020)
Numbering of substitutions follows the chain as printed.

T1: human CD3 (SPR antigen of Example 2) (human)
T1 chain: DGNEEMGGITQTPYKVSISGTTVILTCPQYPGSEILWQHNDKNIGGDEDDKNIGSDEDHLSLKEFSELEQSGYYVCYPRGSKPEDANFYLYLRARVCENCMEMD

B1: CD38VH1xCD28cvnxCD3mid trispecific binding protein (other)
VH 1: QVQLQESGPGLVKPSQTLSLTCTVSGFSLSDYGVHWVRQPPGKGLEWLGVIWAGGGTNYNPSLKSRKTISKDTSKNQVSLKLSSVTAADTAVYYCARDKGYSYYYSMDYWGQGTTVTVS
VL 1: DIVLTQSPASLAVSPGQRATITCRASESVEYYVTSLMQWYQQKPGQPPKLLIFAASNVESGVPARFSGSGSGTDFTLTINPVEANDVANYYCQQSRKVPYTFGQGTKLEIK
VH 2: QVQLVESGGGVVQPGRSLRLSCAASGFTFTKAWMHWVRQAPGKQLEWVAQIKDKSNSYATYYADSVKGRFTISRDDSKNTLYLQMNSLRAEDTAVYYCRGVYYALSPFDYWGQGTLVTVSS
VL 2: DIVMTQTPLSLSVTPGQPASISCKSSQSLVHNNANTYLSWYLQKPGQSPQSLIYKVSNRFSGVPDRFSGSGSGTDFTLKISRVEAEDVGVYYCGQGTQYPFTFGSGTKVEIK
VH 3: QVQLVQSGAEVVKPGASVKVSCKASGYTFTSYAMHWVKEAPGQRLEWIGYIYPGQGGTNYNQKFQGRATLTADTSASTAYMELSSLRSEDTAVYFCARTGGLRRAYFTYWGQGTLVTVSS
VL 3: DIVLTQSPATLSLSPGERATISCRASQSVSSYGQGFMHWYQQKPGQPPRLLIYGASSRATGIPARFSGSGSGTDFTLTISPLEPEDFAVYYCQQNKEDPWTFGGGTKLEIK
B2: CD38VH1xCD28supxCD3low trispecific binding protein (other)
VH 1: QVQLVQSGAEVVKPGASVKVSCKASGYTFTSYYIHWVRQAPGQGLEWIGSIYPGNVNTNYAQKFQGRATLTVDTSISTAYMELSRLRSDDTAVYYCTRSHYGLDWNFDVWGKGTTVTVSS
VL 1: DIQMTQSPSSLSASVGDRVTITCQASQNIYVWLNWYQQKPGKAPKLLIYKASNLHTGVPSRFSGSGSGTDFTLTISSLQPEDIATYYCQQGQTYPYTFGQGTKLEIK
VH 2: B1 VH 2 with Q44G, D76N
VL 2: B1 VL 2 with A34G, S51L, S105G
VH 3: B1 VH 3
VL 3: B1 VL 3
notes: also called CD38VH1xCD28supxCD3mid/low
B3: antiCD38_C2-CD38-1_VH3-VL3 (antibody, human IgG1, kappa, V domains shown)
VH: B1 VH 3 with Y32F, A33N, Q55N
VL: DIVLTQSPATLSLSPGERATISCRASESVDSYGNGFMHWYQQKPGQPPRLLIYLASSRATGIPARFSGSGSGTDFTLTISPLEPEDFAVYYCQQNKEDPWTFGGGTKLEIKR
B4: CD38VH1xCD28cvnxCD3low trispecific binding protein (other)
VH 1: B1 VH 1
VL 1: B1 VL 1
VH 2: B1 VH 2 with Q44G, D76N
VL 2: B1 VL 2 with A34G, S51L, S105G
VH 3: B1 VH 3
VL 3: B1 VL 3
notes: also called CD38VH1xCD28cvnxCD3mid/low
B5: CD38HHY1370xCD28supxCD3mid trispecific binding protein (other)
light 1: DIVMTQTPLSLSVTPGQPASISCKSSQSLVHNNANTYLSWYLQKPGQSPQSLIYKVSNRFSGVPDRFSGSGSGTDFTLKISRVEAEDVGVYYCGQGTQYPFTFGSGTKVEIKGQPKAAPDIQMTQSPSSLSASVGDRVTITCQASQNIYVWLNWYQQKPGKAPKLLIYKASNLHTGVPSRFSGSGSGTDFTLTISSLQPEDIATYYCQQGQTYPYTFGQGTKLEIKTKGPSRTVAAPSVFIFPPSDEQLKSGTASVVCLLNNFYPREAKVQWKVDNALQSGNSQESVTEQDSKDSTYSLSSTLTLSKADYEKHKVYACEVTHQGLSSPVTKSFNRGEC
heavy 1: QVQLVQSGAEVVKPGASVKVSCKASGYTFTSYYIHWVRQAPGQGLEWIGSIYPGNVNTNYAQKFQGRATLTVDTSISTAYMELSRLRSDDTAVYYCTRSHYGLDWNFDVWGKGTTVTVSSSQVQLVESGGGVVQPGRSLRLSCAASGFTFTKAWMHWVRQAPGKQLEWVAQIKDKSNSYATYYADSVKGRFTISRDDSKNTLYLQMNSLRAEDTAVYYCRGVYYALSPFDYWGQGTLVTVSSRTASTKGPSVFPLAPCSRSTSESTAALGCLVKDYFPEPVTVSWNSGALTSGVHTFPAVLQSSGLYSLSSVVTVPSSSLGTKTYTCNVDHKPSNTKVDKRVESKYGPPCPPCPAPEAAGGPSVFLFPPKPKDTLMISRTPEVTCVVVDVSQEDPEVQFNWYVDGVEVHNAKTKPREEQFNSTYRVVSVLTVLHQDWLNGKEYKCKVSNKGLPSSIEKTISKAKGQPREPQVCTLPPSQEEMTKNQVSLSCAVKGFYPSDIAVEWESNGQPENNYKTTPPVLDSDGSFFLVSKLTVDKSRWQEGNVFSCSVMHEALHNHYTQKSLSLSLG
heavy 2: QVQLVESGGGVVQPGRSLRLSCAASGFTFSSYGMHWVRQAPGKGLEWVAVIWYDGSNKYYADSVKGRFTISGDNSKNTLYLQMNSLRAEDTAVYYCARMFRGAFDYWGQGTLVTVSSASTKGPSVFPLAPCSRSTSESTAALGCLVKDYFPEPVTVSWNSGALTSGVHTFPAVLQSSGLYSLSSVVTVPSSSLGTKTYTCNVDHKPSNTKVDKRVESKYGPPCPPCPAPEAAGGPSVFLFPPKPKDTLMISRTPEVTCVVVDVSQEDPEVQFNWYVDGVEVHNAKTKPREEQFNSTYRVVSVLTVLHQDWLNGKEYKCKVSNKGLPSSIEKTISKAKGQPREPQVYTLPPCQEEMTKNQVSLWCLVKGFYPSDIAVEWESNGQPENNYKTTPPVLDSDGSFFLYSKLTVDKSRWQEGNVFSCSVMHEALHNHYTQKSLSLSLG
light 2: AIQMTQSPSSLSASVGDRVTITCRASQGIRNDLGWYQQKPGKAPKLLIYAASSLQSGVPSRFSGSGSGTDFTLTISGLQPEDSATYYCLQDYIYYPTFGQGTKVEIKRTVAAPSVFIFPPSDEQLKSGTASVVCLLNNFYPREAKVQWKVDNALQSGNSQESVTEQDSKDSTYSLSSTLTLSKADYEKHKVYACEVTHQGLSSPVTKSFNRGEC
B6: CD38VH1xCD28supxCD3mid trispecific binding protein (other)
light 1: B5 light 1
heavy 1: B5 heavy 1
heavy 2: QVQLVQSGAEVVKPGASVKVSCKASGYTFTSYAMHWVKEAPGQRLEWIGYIYPGQGGTNYNQKFQGRATLTADTSASTAYMELSSLRSEDTAVYFCARTGGLRRAYFTYWGQGTLVTVSSASTKGPSVFPLAPCSRSTSESTAALGCLVKDYFPEPVTVSWNSGALTSGVHTFPAVLQSSGLYSLSSVVTVPSSSLGTKTYTCNVDHKPSNTKVDKRVESKYGPPCPPCPAPEAAGGPSVFLFPPKPKDTLMISRTPEVTCVVVDVSQEDPEVQFNWYVDGVEVHNAKTKPREEQFNSTYRVVSVLTVLHQDWLNGKEYKCKVSNKGLPSSIEKTISKAKGQPREPQVYTLPPCQEEMTKNQVSLWCLVKGFYPSDIAVEWESNGQPENNYKTTPPVLDSDGSFFLYSKLTVDKSRWQEGNVFSCSVMHEALHNHYTQKSLSLSLG
light 2: DIVLTQSPATLSLSPGERATISCRASQSVSSYGQGFMHWYQQKPGQPPRLLIYGASSRATGIPARFSGSGSGTDFTLTISPLEPEDFAVYYCQQNKEDPWTFGGGTKLEIKRTVAAPSVFIFPPSDEQLKSGTASVVCLLNNFYPREAKVQWKVDNALQSGNSQESVTEQDSKDSTYSLSSTLTLSKADYEKHKVYACEVTHQGLSSPVTKSFNRGEC
notes: also called antiCD38_C2-CD38-1_VH1-VL1xCD28supxCD3mid

Legend:
[1] = molecular target: T2, human CD38 expressed on the surface of recombinant murine preB::300.19 cells (human, UniProt P28907 1-300); assay: flow cytometry on hCD38-expressing murine preB::300.19 cells, apparent KD (called EC50 in paragraph 336)
T2 construct: whole, on cells; also called hCD38-expressing cells; cells expressing human CD38

[2] = molecular target: T2, human CD38 expressed on the surface of …; assay: flow cytometry on hCD38-expressing murine preB::300.19 cells
[3] = molecular target: T3, recombinant human CD38 (SPR antigen of Example 2) (human, UniProt P28907 43-300); assay: SPR against recombinant protein; the cell gives two values for mid/low, the first taken as the CD3mid construct
[4] = molecular target: T4, cynomolgus monkey CD38 expressed on the surface of recombinant murine preB::300.19 cells (cynomolgus monkey, UniProt Q5VAN0 1-301); assay: flow cytometry on cCD38-expressing murine preB::300.19 cells
T4 construct: whole, on cells; also called cCD38-expressing cells; cells expressing cynomolgus CD38

[5] = molecular target: T1, human CD3 (SPR antigen of Example 2); assay: SPR; KD rounded to integer; the cell gives two values for mid/low, the first taken as the CD3mid construct
[6] = molecular target: T3, recombinant human CD38 (SPR antigen of …); assay: as above
[7] = molecular target: T5, human CD28 (SPR antigen of Example 2) (human, UniProt P10747 19-152); assay: as above
[8] = molecular target: T4, cynomolgus monkey CD38 expressed on the …; assay: flow cytometry on cCD38-expressing murine preB::300.19 cells, apparent KD (called EC50 in paragraph 336)
[9] = molecular target: T1, human CD3 (SPR antigen of Example 2); assay: SPR; KD rounded to integer; the cell gives two values for mid/low, the second taken as the CD3low construct
[10] = molecular target: T3, recombinant human CD38 (SPR antigen of …); assay: as above
[11] = molecular target: T5, human CD28 (SPR antigen of Example 2); assay: as above
[12] = molecular target: T3, recombinant human CD38 (SPR antigen of …); assay: SPR against recombinant protein; the cell gives two values for mid/low, the second taken as the CD3low construct
[13] = molecular target: T6, hCD38-his (SEQ ID NO: 2) (human, UniProt P28907 45-300); assay: SPR (summary table; Table K value rounded)
T6 construct: also called human CD38-histag (ID2); soluble extracellular domain of humanCD38

[14] = molecular target: T1, human CD3 (SPR antigen of Example 2); assay: SPR; KD rounded to integer per the table's title
[15] = molecular target: T3, recombinant human CD38 (SPR antigen of …); assay: SPR

Binder | Kd [3] [nM] | Kd [5] [nM] | Kd [6] [nM] | Kd [9] [nM] | Kd [10] [nM] | Kd [11] [nM] | Kd [12] [nM] | also measured
B1 | 4 | 23 | 4 |  |  |  |  | Kd [1]: 4.4 nM; fold lower apparent affinity than the parental antiCD38_C2-CD38-1_VH1-VL1 antibody [2]: 9 fold; fold lower apparent affinity than the parental antiCD38_C2-CD38-1_VH1-VL1 antibody [4]: 7.5 fold; Kd [7]: 18 nM; Kd [8]: 7.5 nM
B2 |  |  |  | 76 | 6 | 4 | 6 | 
B3 |  |  |  |  |  |  |  | Kd [13]: 0.48 nM
B4 |  |  |  | 59 | 6 | 34 | 6 | 
B5 |  |  |  |  |  |  |  | Kd [14]: 48 nM; Kd [15]: 1 nM
B6 | 4 | 21 | 4 |  |  |  |  | EC50 [2]: 11 nM
